The experiment addresses SUMO-SRCAP_(521-569) (human). In words: ITC. (In general: In ITC the heat of successive injections is recorded.)

Chain of SUMO-SRCAP_(521-569) (human) (Q6ZRS2 521-569): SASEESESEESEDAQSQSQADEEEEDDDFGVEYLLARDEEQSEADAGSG

The Kd is the concentration at which binding is half-saturated. Read a low Kd as tighter binding. “H2A.Z/H2B dimer, wild type (from UniProt P0C0S5 1-128; P06899 1-126) (complex)” displayed a dissociation constant Kd of 256 nM.

For the origin of these results see doi:10.64898/2025.12.30.697126.
